Results published in paper PMC9352930, “Structure-Guided Engineering of a Complement Component C3-Binding Nanobody Improves Specificity and Adds Cofactor Activity” (Frontiers in Immunology, 2022).
Blank lines part the entries; values can stand above or below the binder they belong to.

Columns and labels:
Conditions in all cases: both partners purified
[1] = molecular target: T1, C3b (proteolytic fragment of complement component C3) (human, UniProt P01024); assay: BLI; single concentration: nanobody variant held on anti-penta his (His1K) biosensors, transferred into 50 nM C3 or C3b for 180 s; 20 mM HEPES pH 7.5, 150 mM NaCl, 30°C
T1 construct: complement component C3, human, beta chain; complement component C3, human, alpha' chain (alpha chain after release of C3a); also called human C3b; source: generated from native plasma C3 by trypsin cleavage, purified

[2] = molecular target: T1, C3b (proteolytic fragment of complement …); assay: SPR; biotinylated C-terminally avi-tagged nanobody on streptavidin (CM500M chip); native C3, C3b and C3MA injected at 0.4-200 nM; 20 mM HEPES pH 7.5, 150 mM NaCl, 0.05% Tween 20, 25°C; 1:1 model; KD for native C3 called apparent
iC3b = molecular target: T2, iC3b (human); assay: BLI; kinetics: EWE, EWEµH or EWEnH held on anti-penta his (His1K) biosensors, dilution series of C3b or iC3b; 20 mM HEPES pH 7.5, 150 mM NaCl, 30°C; 1:1 model
T2 construct: complement component C3, human, beta chain; it says only that FI degrades C3b to iC3b; copies: + +

[3] = molecular target: T1, C3b (proteolytic fragment of complement …); assay: as above
[4] = molecular target: T1, C3b (proteolytic fragment of complement …); assay: SEC; C3 or C3b mixed with a two-fold molar excess of nanobody, 5 min on ice; Superdex 200 increase, 20 mM HEPES pH 7.5, 150 mM NaCl; peak fractions on SDS-PAGE

T2 sequence (chain, as listed by the source, chain 1 of 3): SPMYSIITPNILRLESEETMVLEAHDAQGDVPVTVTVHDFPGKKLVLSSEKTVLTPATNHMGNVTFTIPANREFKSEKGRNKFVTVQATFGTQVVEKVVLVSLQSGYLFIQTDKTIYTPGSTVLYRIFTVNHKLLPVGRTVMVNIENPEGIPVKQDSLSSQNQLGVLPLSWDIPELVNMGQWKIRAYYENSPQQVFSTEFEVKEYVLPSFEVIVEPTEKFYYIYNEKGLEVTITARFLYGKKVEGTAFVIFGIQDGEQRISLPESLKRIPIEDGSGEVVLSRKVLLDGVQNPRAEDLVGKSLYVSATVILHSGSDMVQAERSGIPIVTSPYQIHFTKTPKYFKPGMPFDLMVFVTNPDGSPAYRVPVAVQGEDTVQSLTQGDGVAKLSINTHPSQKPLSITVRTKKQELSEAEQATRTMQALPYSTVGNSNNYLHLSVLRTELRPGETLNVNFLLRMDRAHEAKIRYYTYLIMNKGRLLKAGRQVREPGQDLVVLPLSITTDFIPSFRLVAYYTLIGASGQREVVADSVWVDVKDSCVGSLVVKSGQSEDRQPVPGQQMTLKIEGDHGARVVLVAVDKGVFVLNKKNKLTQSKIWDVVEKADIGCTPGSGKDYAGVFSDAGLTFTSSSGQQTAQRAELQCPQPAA
T2 sequence (chain, as listed by the source, chain 2 of 3): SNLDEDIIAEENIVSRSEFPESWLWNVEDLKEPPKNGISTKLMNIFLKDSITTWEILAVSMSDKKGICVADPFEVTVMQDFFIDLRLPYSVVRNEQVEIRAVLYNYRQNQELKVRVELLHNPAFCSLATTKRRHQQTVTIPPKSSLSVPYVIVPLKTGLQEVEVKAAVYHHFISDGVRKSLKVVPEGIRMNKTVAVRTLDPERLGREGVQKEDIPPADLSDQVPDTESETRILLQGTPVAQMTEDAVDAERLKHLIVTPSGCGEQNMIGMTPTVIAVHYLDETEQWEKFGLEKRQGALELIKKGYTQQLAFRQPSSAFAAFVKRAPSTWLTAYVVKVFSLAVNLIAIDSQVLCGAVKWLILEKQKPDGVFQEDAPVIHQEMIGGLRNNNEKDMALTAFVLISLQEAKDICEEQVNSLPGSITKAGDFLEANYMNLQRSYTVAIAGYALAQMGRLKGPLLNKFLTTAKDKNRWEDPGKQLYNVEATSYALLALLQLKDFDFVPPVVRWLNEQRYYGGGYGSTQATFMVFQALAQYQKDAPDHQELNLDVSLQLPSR
T2 sequence (chain, as listed by the source, chain 3 of 3): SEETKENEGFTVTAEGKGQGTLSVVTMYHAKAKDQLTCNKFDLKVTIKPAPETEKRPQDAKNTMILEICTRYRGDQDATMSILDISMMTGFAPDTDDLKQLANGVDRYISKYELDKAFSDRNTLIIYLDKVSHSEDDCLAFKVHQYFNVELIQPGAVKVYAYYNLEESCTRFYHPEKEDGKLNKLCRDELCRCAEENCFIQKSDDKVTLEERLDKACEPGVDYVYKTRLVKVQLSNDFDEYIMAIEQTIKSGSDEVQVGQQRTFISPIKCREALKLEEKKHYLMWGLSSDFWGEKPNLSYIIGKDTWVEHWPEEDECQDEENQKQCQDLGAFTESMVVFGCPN

- binding result [1]: binds
B1: hC3Nb1 ΔQ1 (VHH)
VHH: VQLVETGGGLVQAGGSLRLSCAASGSIFSLNAMGWFRQAPGKEREFVATINRSGGRTYYADSVKGRFTISRDNGKNMVYLQMHSLKPEDTAIYYCAAGTGWSPQTDNEYNYWGQGTQVTVSS
notes: hC3Nb1 nanobody with the N-terminal glutamine deleted; parent as the nanobody piece of m6; The printed calculated mass (14068.6) fits a protein without the N-terminal methionine (my reckoning against 14327.9 for m6); source: expressed in bacteria, purified

- Kd [2]: 2.2 nM
B2: avi-tagged, biotinylated EWE nanobody (VHH)
VHH: QVQLVETGGGLVQAGGSLRLSCAASGSIFSINAMGWFRQAPGKEREFVATINRSGGRTYYADSVKGRFTISRDNGKNMVYLQMHSLKPEDTAIYYCAAGTGWSPQTDNEYNYWGQGTQVTVSS
notes: hC3Nb1 nanobody; as the nanobody piece of m6; also called avi-tagged version of EWE; source: purified similarly to EWE (bacteria; HisTrap, Source 15S, SEC) and biotinylated; not shown: Avi tag, C-terminal, kept

More lines, now with the values behind:

B3: EWE-hC3Nb1 nanobody, bacterially expressed (VHH)
VHH: QVQLVETGGGLVQAGGSLRLSCAASGSIFSINAMGWFRQAPGKEREFVATINRSGGRTYYADSVKGRFTISRDNGKNMVYLQMHSLKPEDTAIYYCAAGTGWSPQTDNEYNYWGQGTQVTVSS
notes: hC3Nb1 nanobody, beginning with its N-terminal glutamine (Gln4 of EWE); as the nanobody piece of m6; also called EWE nanobody; source: LOBSTR cells (bacteria), purified (HisTrap, Source 15S, SEC); not shown: 6xHis, C-terminal, kept
- Kd (iC3b): 3.6 nM
- Kd [3]: 3 nM

B4: hC3Nb1 Q1N (VHH)
VHH: NVQLVETGGGLVQAGGSLRLSCAASGSIFSLNAMGWFRQAPGKEREFVATINRSGGRTYYADSVKGRFTISRDNGKNMVYLQMHSLKPEDTAIYYCAAGTGWSPQTDNEYNYWGQGTQVTVSS
notes: hC3Nb1 nanobody with the N-terminal glutamine mutated to asparagine; parent as the nanobody piece of m6; The printed calculated mass (14182.7) fits a protein without the N-terminal methionine (my reckoning against 14327.9 for m6); source: expressed in bacteria, purified
- binding result [1]: binds

B5: hC3Nb1 nanobody, bacterially expressed (VHH)
VHH: QVQLVETGGGLVQAGGSLRLSCAASGSIFSLNAMGWFRQAPGKEREFVATINRSGGRTYYADSVKGRFTISRDNGKNMVYLQMHSLKPEDTAIYYCAAGTGWSPQTDNEYNYWGQGTQVTVSS
notes: N-terminal methionine, retained according to mass spectrometry; hC3Nb1 nanobody; in the PDB entries of its complexes with C3b (6EHG) and C3 (6RU5); pET-22b(+) plasmid; Held on anti-penta-His sensors in BLI; also called parental hC3Nb1; hC3bNb1; source: LOBSTR cells (bacteria), purified (HisTrap, Source 15S, SEC)
- binding result [4]: binds

B6: hC3Nb1 nanobody, mammalian expressed (VHH)
VHH: QVQLVETGGGLVQAGGSLRLSCAASGSIFSLNAMGWFRQAPGKEREFVATINRSGGRTYYADSVKGRFTISRDNGKNMVYLQMHSLKPEDTAIYYCAAGTGWSPQTDNEYNYWGQGTQVTVSS
notes: hC3Nb1 nanobody without the N-terminal methionine; in the PDB entries 6EHG and 6RU5; pcDNA 3.1 vector; The calculated mass differs from that of the bacterial construct by more than a methionine, so tag or ends may differ; source: HEK293, transiently transfected, purified from conditioned media (HisTrap excel, ion exchange, SEC)
- binding result [1]: binds
